Series [1] deals with T1, CST complex (CTC1-STN1-TEN1) (human, UniProt Q2NKJ3;Q9H668;Q86WV5 1-1217;1-368;1-123). The experiment in a line: EMSA. On the technique in general: In EMSA bound probe runs differently from free probe, usually more slowly.
The target of series [2] is T1, CST complex (CTC1-STN1-TEN1). Nature of the series: EMSA. This is another data set of the same source.
Series [3] shares this target. Nature of the series: smFRET.
The target is the same in series [4]. Nature of the series: smFRET. The source holds these as a separate data set.
The target is the same in series [5]. The experiment in a line: EMSA. The source holds these as a separate data set.
The target is the same in series [6]. The experiment in a line: EMSA. This is another data set of the same source.
For series [7] the target is unchanged. The experiment in a line: EMSA. The source holds these as a separate data set.
Series [8] shares this target. The experiment in a line: EMSA. The source holds these as a separate data set.

T1 sequence (Q2NKJ3 whole entry, chain 1 of 3): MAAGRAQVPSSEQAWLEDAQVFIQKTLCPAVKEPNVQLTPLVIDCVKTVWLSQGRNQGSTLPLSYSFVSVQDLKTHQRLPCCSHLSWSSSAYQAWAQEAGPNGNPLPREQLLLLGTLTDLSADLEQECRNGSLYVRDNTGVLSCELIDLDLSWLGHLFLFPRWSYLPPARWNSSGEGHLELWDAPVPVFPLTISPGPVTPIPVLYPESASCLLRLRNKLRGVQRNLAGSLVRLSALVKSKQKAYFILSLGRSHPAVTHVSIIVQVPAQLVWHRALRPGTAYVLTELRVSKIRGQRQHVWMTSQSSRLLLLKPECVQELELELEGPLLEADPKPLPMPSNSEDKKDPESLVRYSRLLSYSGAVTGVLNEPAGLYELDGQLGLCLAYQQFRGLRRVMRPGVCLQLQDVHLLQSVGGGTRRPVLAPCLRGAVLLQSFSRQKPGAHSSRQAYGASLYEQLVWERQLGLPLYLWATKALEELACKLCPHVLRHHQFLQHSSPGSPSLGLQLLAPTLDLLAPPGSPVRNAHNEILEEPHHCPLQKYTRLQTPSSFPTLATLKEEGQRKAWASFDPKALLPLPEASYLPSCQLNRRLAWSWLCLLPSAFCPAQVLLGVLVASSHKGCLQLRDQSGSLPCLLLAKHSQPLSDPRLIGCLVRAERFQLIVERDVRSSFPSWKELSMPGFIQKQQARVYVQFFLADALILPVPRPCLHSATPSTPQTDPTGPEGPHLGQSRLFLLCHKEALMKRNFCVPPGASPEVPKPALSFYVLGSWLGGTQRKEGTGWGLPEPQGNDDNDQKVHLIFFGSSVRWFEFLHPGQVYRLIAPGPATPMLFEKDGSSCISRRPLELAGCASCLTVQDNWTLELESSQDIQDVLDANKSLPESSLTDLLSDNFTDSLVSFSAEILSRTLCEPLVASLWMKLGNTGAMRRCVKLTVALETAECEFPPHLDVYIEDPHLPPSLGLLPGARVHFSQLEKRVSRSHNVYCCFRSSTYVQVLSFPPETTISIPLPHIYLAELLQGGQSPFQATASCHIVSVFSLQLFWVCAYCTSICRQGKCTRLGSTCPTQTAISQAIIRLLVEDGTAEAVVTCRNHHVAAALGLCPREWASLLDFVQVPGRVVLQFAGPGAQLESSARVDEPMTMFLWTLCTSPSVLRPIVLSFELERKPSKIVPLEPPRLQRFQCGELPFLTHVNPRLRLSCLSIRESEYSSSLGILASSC
T1 sequence (Q9H668 whole entry, chain 2 of 3): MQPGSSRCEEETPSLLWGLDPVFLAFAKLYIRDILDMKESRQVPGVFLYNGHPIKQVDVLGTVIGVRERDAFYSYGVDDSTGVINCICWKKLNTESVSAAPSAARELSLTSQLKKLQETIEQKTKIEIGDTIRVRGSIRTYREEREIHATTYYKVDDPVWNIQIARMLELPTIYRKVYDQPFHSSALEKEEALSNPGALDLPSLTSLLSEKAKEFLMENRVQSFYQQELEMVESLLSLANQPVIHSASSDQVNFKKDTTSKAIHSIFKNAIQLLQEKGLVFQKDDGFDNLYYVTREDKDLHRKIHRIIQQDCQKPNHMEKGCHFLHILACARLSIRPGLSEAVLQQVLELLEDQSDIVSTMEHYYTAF
T1 sequence (Q86WV5 whole entry, chain 3 of 3): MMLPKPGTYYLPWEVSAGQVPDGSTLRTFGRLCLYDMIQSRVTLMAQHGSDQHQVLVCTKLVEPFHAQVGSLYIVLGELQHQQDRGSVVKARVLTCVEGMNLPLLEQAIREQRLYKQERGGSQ

B1: Non-Tel fold-back (dsDNA), no overhang (structured_DNA)
DNA: ACGACTGCATCTAGCTTTTTGCTAGATGCAGTCGT
Consider B1, for which the binding result in series [1] is “no binding”.

B2: Non-Tel 18 (ssDNA)
DNA: AGCGTATCCGTTCAGTTG
For the molecule B2, in series [1], the binding result is on record as “no binding”.

B3: Two-oligonucleotide junction 32/22 (mixed)
DNA 1: GCGTACTCAGTGACTCAGATCGAGCGTATCCG
DNA 2: CGATCTGAGTCACTGAGTACGC
Consider B3, for which, in series [2], the binding result is given as “binds”.

B4: smFRET 3G4-Cy3 (mixed)
DNA 1: TGGCGACGGCAGCGAGGCTTAGGGTTAGGGTTAGGGTTAGGG
DNA 2: GCCTCGCTGCCGTCGCCA
With B4, in series [3], the binding result was “binds”.

B5: smFRET non-telomeric junction, 18 nt overhang (mixed)
DNA 1: TGGCGACGGCAGCGAGGCAGCGTATCCGTTCAGTTG
DNA 2: GCCTCGCTGCCGTCGCCA
Turning to B5, the binding result in series [4] is given as “binds”.

B6: G4 (structured_DNA)
DNA: GGGTTAGGGTTAGGGTTAGGG
B6: in series [5], the binding result is listed as “binds”.

B7: 3G46 (structured_DNA)
DNA: TTAGGGTTAGGGTTAGGGTTAGGGAGCGTA
Consider B7, for which, in series [5], the binding result was “binds”.

B8: 3G4 (structured_DNA)
DNA: TTAGGGTTAGGGTTAGGGTTAGGG
With B8, the binding result in series [5] was “binds”.

B9: Non-Tel 22 (ssDNA)
DNA: CGATCTGAGTCACTGAGTACGC
Take B9: in series [6], the binding result is given as “no binding”.

B10: Non-Tel fold-back 18 nt 3' overhang (structured_DNA)
DNA: ACGACTGCATCTAGCTTTTTGCTAGATGCAGTCGTAGCGTATCCGTTCAGTTG
As for B10, the binding result in series [7] was “binds”.

B11: Mixed fold-back 18 nt 3' overhang (structured_DNA)
DNA: ACGACTGCATCTAGCTTTTTGCTAGATGCAGTCGTGGTTAGGGTTAGGGTTAG
Consider B11, for which the binding result in series [1] is reported as “binds”.

B12: Tel 18 (ssDNA)
DNA: GGTTAGGGTTAGGGTTAG
Consider B12, for which the binding result in series [8] is “binds”.

B13: smFRET 3G46-Cy3 (mixed)
DNA 1: TGGCGACGGCAGCGAGGCTTAGGGTTAGGGTTAGGGTTAGGGAGCGTA
DNA 2: GCCTCGCTGCCGTCGCCA
For B13, the binding result in series [3] is “binds”.

B14: 3G5 (G5 in text) (structured_DNA)
DNA: TTAGGGTTAGGGTTAGGGTTAGGGTTAGGG
Consider B14, for which the binding result in series [5] was “binds”.

B15: Telomere fold-back 18 nt 3' overhang (structured_DNA)
DNA: CTAACCGCATCTAGCTTTTTGCTAGATGCGGTTAGGGTTAGGGTTAGGGTTAG
As to B15, in series [7], the binding result was “binds”.

The values are drawn from article PMC5716219.
